Data as given in PMC4166567.

How the values were obtained:
[1] = target: caveolin-1 (Cav-1), endogenous in human renal proximal tubule (hRPT) cells (human (endogenous in hRPT cells)) (UniProt Q03135); test: co-IP
[2] = target: adenylyl cyclase 5/6 (AC5/6), endogenous in HEK-293 cells (human (endogenous in HEK-293)) (UniProt O95622); test: co-IP

Chain of UniProt Q03135 (Q03135 whole entry): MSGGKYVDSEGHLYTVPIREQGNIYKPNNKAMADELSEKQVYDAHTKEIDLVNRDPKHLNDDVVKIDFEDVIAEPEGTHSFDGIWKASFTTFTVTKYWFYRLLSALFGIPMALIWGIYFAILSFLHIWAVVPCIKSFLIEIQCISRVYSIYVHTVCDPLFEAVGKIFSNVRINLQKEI

| density of the co-immunoprecipitated band (DU), cells with fenoldopam [1] | density of the co-immunoprecipitated band (DU), control cells [1] | density of the co-immunoprecipitated band (DU), cells with fenoldopam [2] | Substance |
| --- | --- | --- | --- |
| 148 DU | 70.3 DU |  | adenylyl cyclase 5/6 (AC5/6), endogenous in human renal proximal tubule (hRPT) cells (from UniProt O95622 1-1261) (enzyme) |
|  |  | 76.2 DU | human dopamine D5 receptor, V5-tagged, heterologously expressed in HEK-293 cells (HEK-hD5R) (from UniProt P21918 1-477) |
|  |  | 41.9 DU | human dopamine D1 receptor, Myc-tagged, heterologously expressed in HEK-293 cells (HEK-hD1R) (from UniProt P21728 1-446) |
